Values joined by “and” are separate entries in the source; they are usually repeats but may differ in a detail not shown here. Identical values can stand only once.

Test [1] concerns the target T1, FcγRI (UniProt P12314 16-288, limits assumed).
T1 construct: It was immobilized on Ni-NTA biosensors, which implies a His tag; The ELISA paragraph calls it 'His tab-labeled recombinant purified FcγRI'; also called CD64
In words: Octet QK384, FcγRI on Ni-NTA biosensors, 7 XTMAB-16 concentrations, 1:1 model fit. A general note: Biolayer interferometry detects binding as a change in optical thickness at a sensor tip.

For test [2], the target named is T1, FcγRI. Put plainly: Octet QK384, FcγRI on Ni-NTA biosensors; range stated for the batches.
Test [3] has as its target T2, His-tagged FcγRIIIa (UniProt P08637 17-208, limits assumed).
T2 construct: His-tagged and captured on anti-penta-His biosensors; also called CD16
In words: Octet QK384, steady-state KD from binding curves; range stated for the batches.

Test [4] addresses TNFα from cynomolgus monkey (cynomolgus monkey, UniProt P79337 77-233, limits assumed). Put plainly: ELISA, cross-species binding studies. (In general: ELISA stands for enzyme-linked immunosorbent assay.)
The target of test [5] is TNFα from rhesus monkey (rhesus monkey, UniProt P48094 77-233). Put plainly: ELISA, cross-species binding studies.
Sequence of TNFα from rhesus monkey (P48094 77-233 limits assumed): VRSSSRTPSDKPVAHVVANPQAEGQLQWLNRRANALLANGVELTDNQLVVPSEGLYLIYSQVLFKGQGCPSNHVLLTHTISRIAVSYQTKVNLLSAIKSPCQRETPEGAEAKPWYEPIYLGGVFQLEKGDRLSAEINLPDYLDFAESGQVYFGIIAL
The target in test [6] is T3, TNFα from rat (rat, UniProt P16599 80-235).
T3 sequence (looked up): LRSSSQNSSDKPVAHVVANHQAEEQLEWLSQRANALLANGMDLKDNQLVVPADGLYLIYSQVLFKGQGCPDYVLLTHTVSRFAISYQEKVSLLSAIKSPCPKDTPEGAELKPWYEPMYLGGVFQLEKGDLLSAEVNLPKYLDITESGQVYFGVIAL
Put plainly: ELISA, cross-species binding studies.

Test [7] has as its target TNFα from dog (dog, UniProt P51742 77-233). Put plainly: ELISA, cross-species binding studies.

T1 sequence (P12314 16-288 limits assumed): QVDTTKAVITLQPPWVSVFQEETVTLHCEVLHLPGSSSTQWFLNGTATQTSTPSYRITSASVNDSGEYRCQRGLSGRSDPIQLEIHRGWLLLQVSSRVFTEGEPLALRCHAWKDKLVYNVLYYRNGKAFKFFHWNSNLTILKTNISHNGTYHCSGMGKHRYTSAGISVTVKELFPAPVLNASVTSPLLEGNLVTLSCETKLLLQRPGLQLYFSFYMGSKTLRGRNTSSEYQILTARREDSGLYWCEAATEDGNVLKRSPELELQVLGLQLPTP
T2 sequence (P08637 17-208 limits assumed): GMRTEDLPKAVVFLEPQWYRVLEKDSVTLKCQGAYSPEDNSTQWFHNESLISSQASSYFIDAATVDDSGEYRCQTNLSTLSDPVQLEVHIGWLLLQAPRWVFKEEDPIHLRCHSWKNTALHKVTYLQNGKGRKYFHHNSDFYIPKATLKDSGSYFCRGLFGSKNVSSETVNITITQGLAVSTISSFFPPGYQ
Sequence of TNFα from cynomolgus monkey (P79337 77-233 limits assumed): as the sequence (P48094 77-233 limits assumed) above, with L37V counted along it
Sequence of TNFα from dog (P51742 77-233 limits assumed): as the sequence (P48094 77-233 limits assumed) above, with R2K, Q21E, N30S, V49I, E53D, N72T, I83F, A109T, D140N counted along it

B1: XTMAB-16 (antibody, human IgG1, kappa)
heavy: not shown
light: DILLTQSPAILSVSPGERVSFSCRASQFVGSSIHWYQQRTNGSPRLLIKYASESMSGIPSRFSGSGSGTDFTLSINTVESEDIADYYCQQSHSWPFTFGSGTNLEVKRTVAAPSVFIFPPSDEQLKSGTASVVCLLNNFYPREAKVQWKVDNALQSGNSQESVTEQDSKDSTYSLSSTLTLSKADYEKHKVYACEVTHQGLSSPVTKSFNRGEC
notes: The general description says the antibody is sialylated with N-acetylneuraminic acid (Asn 297 in embodiments) and glycosylated at Asn 300; All batches (A-H); also called XTMB-16
Regarding B1, the Kd (commonly a measure of binding affinity in units of concentration) in test [1] is 0.68 nM and 0.63 nM; in test [2], 0.5 nM and 0.9 nM; in test [3] it was 300 nM. Moreover, the binding result in test [4], in test [5], in test [6] and in test [7] was “no binding” each time.

Source of the values: US20260042831A1 (XENTRIA, published 2026).
